Measurements from the supplement of paper PMC10567573.
± gives the standard deviation.

Test: protein stability index of a GFP-peptide fusion (GPS, HEK-293T) (PSI 1-6); higher = more stable
Settings: c terminus: a fixed tail appended
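Further: 24-mer peptide tiles fused after GFP, lentivirally expressed, FACS-sorted into six equal bins by GFP/DsRed ratio, decoded by Illumina sequencing, PSI is the read-weighted mean bin number.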

Sequence | protein stability index (treatment: DMSO) | protein stability index (treatment: MLN4924 1 uM, 8 h)
YWKDTRTSGVVFTGLMVSLLCLLH [RTN2] | 2.3 ± 0.24 | 2.2 ± 0.28
VQTGLDQYQQVPVEIVKSDFHKPF [IQUB] | 3.5 ± 0.22 | 3.52 ± 0.33
YMMAKKHLEINPDHPIVETLRQKA [HSP90AB1] | 3.01 ± 0.33 | 3.19 ± 0.39
IKENAQDTMRQINKKGFWSYGPVI [TOR1AIP2] | 2.51 ± 0.45 | 2.52 ± 0.26
SWCLKRYDLEYWAFHDGQRSRLRP [TRIM14] | 2.18 ± 0.25 | 2.33 ± 0.13
LGTRESDTEVITVEKSSPATSLFV [BCL2L13] | 3.84 ± 0.15 | 4.04 ± 0.12
TKFDRDGNRILDEKEQEKMRQDLE [PKD2L1] | 5.12 ± 0.34 | 5.36 ± 0.35
MGCHGFRDPFECNMCGYHSQDRYE [IKZF1] | 3.2 ± 0.11 | 3 ± 0.3
FRKVKQMHLNFMDEKDRIITAFYN [DNAJC4] | 2.26 ± 0.2 | 2.41 ± 0.28
EFNELLSKYQLSEAQLSLIRDIRR [NFE2L1] | 2.57 ± 0.22 | 2.82 ± 0.38
SSSDSDFDDEEPRKFYVHIKPAPA [FCHO1] | 4.5 ± 0.27 | 4.45 ± 0.084
CATVGNRGFVFGGRYRDARMNDLH [KLHDC2] | 2.19 ± 0.36 | 2.05 ± 0.19
LRASGSLCGPHAKAPYLCEATHEP | 2.84 ± 0.22 | 3.1 ± 0.27
PDGLMYQKFRNQFLSFSMYQSFVQ [TMEM120A] | 2.68 ± 0.59 | 2.33 ± 0.76
LTQKKPFADEKNILHIMVKVVKGH [RIPK4] | 2.01 ± 0.18 | 1.79 ± 0.48
KRFTDAGFEHYDLFFIDGSTPSDN [CDC14A] | 3.45 ± 0.16 | 3.45 ± 0.084
CGRKLAKDGEYCWRWTGFNFGFDL [GMCL1] | 2.72 ± 0.54 | 2.71 ± 0.91
AWHCSESGQRLGGYRTSAVASGLQ [WDFY2] | 2.84 ± 0.14 | 3.1 ± 0.16
CINRFQQVESRWGYSGTSDRIRFT [BTBD1] | 1.8 ± 0.12 | 2.07 ± 0.31
PRLCYLVKEGGSYGFSLKTVQGKK [PDZK1] | 3.02 ± 0.12 | –
CPPLHIPGSMSEVQELCKQLHAKI [TNNI2] | 2.88 ± 0.3 | 2.93 ± 0.14
EKCKEEFVEEIKKLATQHKQLISQ [ZMYND11] | 4.2 ± 0.28 | 4.06 ± 1.2
TNTTSTQMTNIGVYVSNMTDKLVT [IQUB] | 2.78 ± 0.3 | 2.8 ± 0.34

Sequence | protein stability index (treatment: DMSO) | protein stability index (treatment: MLN4924 1 uM, 8 h)
VVAGDTVSTGSTDNSPTSNSLEGG [ADAMTSL2] | 5.39 ± 0.4 | 5.48 ± 0.15
GGGGSRSISASSARFVSSGSGGGY [KRT15] | 4.23 ± 0.29 | 4.13 ± 0.3
RWSRVGGQRFYSRVLSPLHRGPSG | 2.9 ± 0.27 | 2.72 ± 0.42
FGWETKIKAWMDRYEEANNNQYSE [KMT2E] | 3.1 ± 0.18 | 3.58 ± 0.13
GLSSSSARFLSRSIPSLQSEYVHY [CDC14A] | 2.97 ± 0.53 | 3.02 ± 0.21
QWFAMLRAEQDSEVGPQEINKEEL [GMCL1] | 3.95 ± 0.43 | 3.81 ± 0.2
SEAKADKILAEAAKLVPMGFTTAT [RAD51] | 3.93 ± 0.25 | 3.93 ± 0.13
TLTSVQLLDCFGIPVLMALSWFIL [SLC35F2] | 3.03 ± 0.35 | 2.65 ± 0.58
FAKAGDTLSGTCLLIANKRQSYDI [CARM1] | 2.48 ± 0.38 | 2.36 ± 0.41
RWKRRRSYSREHEGRLRYPSRREP [CLK3] | 3.86 ± 0.39 | 4.14 ± 0.36
FAYYKLNDVRQAARSAASYMLFDP [P3H4] | 2.12 ± 0.22 | 2.14 ± 0.16
PLVGQDEFFLEQTKKKGVKRPARL [NOP53] | 4.18 ± 0.41 | 4.2 ± 0.19
YDPDYIQCPYCQRRFNENAADRHI [ZC2HC1A] | 3.84 ± 0.24 | 4.16 ± 0.34
LVVNIDNAKLASDDFRSKYQTEQS [KRT34] | 3.65 ± 0.2 | 3.62 ± 0.2
EEKKAKVAPPAKQAQQKKAPAKKA [BRD3] | 5.45 ± 0.29 | 5.49 ± 0.17
VTTTSSASVTTTSNASGRRTSDVR [KRT13] | 5.07 ± 0.15 | 5.24 ± 0.15
PQNGSETGWARKGLGNTWPGASGS [ATP23] | 4.32 ± 0.24 | 4.33 ± 0.34
IQELELQAQIHGLPVPPTPGLLSL [TFE3] | 2.62 ± 0.22 | 2.56 ± 0.28
GLVYRLNRFRVEISFHFEVTNHNI [TRIM43] | 3.33 ± 0.66 | 3.35 ± 0.8
LEGQDAKMIGFPSSAGSVSPRSTS [KRT13] | 5.18 ± 0.16 | 5.152 ± 0.026
LVVFAVLGFKANIMNEKCVVENAE [SLC6A17] | 2.97 ± 0.32 | 2.82 ± 0.39
LSWELLDSHLGGNARGMGIRSPRP [CTBP1-DT] | 3.18 ± 0.46 | 3.18 ± 0.3
AGELRKPTQEEWRQVVDILWSDPM [PPEF2] | 3 ± 0.53 | 2.97 ± 0.082

Sequence | protein stability index (treatment: DMSO) | protein stability index (treatment: MLN4924 1 uM, 8 h)
EPWLPLTDGRSPRRSRDPGYDHLW [PLEKHN1] | 3.68 ± 0.14 | 3.57 ± 0.26
YLHTNVALVAPLLRLENNHCHIEE [VPS39] | 2.33 ± 0.2 | 2.74 ± 0.34
MMHDQRTGPAWNVLMWTMLFLGQG [SOAT2] | 2.8 ± 0.93 | 2.65 ± 0.59
PADALQYLLQFARKPVEAESVEGV [INTS4] | 2.9 ± 0.29 | 2.98 ± 0.41
DRGTRVVFIDFSVYNANINLFCVL [PKD2L1] | 3.11 ± 0.08 | 2.95 ± 0.31
CAGPGFTHNIAHGSLGFEPVYVSC [SPAG8] | 2.48 ± 0.75 | 2.49 ± 0.64
QNIQSWSNHSWNTQTWCTQSWNNQ [NANOGP8] | 2.53 ± 0.37 | 2.61 ± 0.24
VLFSTHTLDKCGICQGDGSSCTHV [ADAMTSL2] | 3.8 ± 0.22 | 4.09 ± 0.19
KFPGQSSFLWQRGRKFLQKHLNAS [TOR1AIP2] | 2.47 ± 0.14 | 2.51 ± 0.22
FNPEVAKYLKVPQDPLKFYKKIYF [IQUB] | 2.12 ± 0.36 | 2.24 ± 0.043
SLGVDTLPPPDPNPPRAEFNYSVG [APBB1IP] | 4.1 ± 0.31 | 4.44 ± 0.22
PEQLVLTLLEAEPPHVLISRPSAP [ESR2] | 2.89 ± 0.31 | 3.1 ± 0.48
PAMVRISKPKTFQAYLDDCHRRYS [YPEL3] | 2.96 ± 0.11 | 2.92 ± 0.17
ALSGVGGIRLPNGKLKCDICGIIC [IKZF1] | 1.96 ± 0.26 | 2.1 ± 0.34
KVPAPKDVLAHQVPNAKKLRRKEQ [NOP53] | 4.76 ± 0.26 | 4.99 ± 0.17
MSVGHLRLLSHDQVAMPYQWEYPY [JAGN1] | 2.11 ± 0.29 | 2.02 ± 0.4
AEKWQKEKDRIKSFTTNEKAILEQ [TRIM29] | 4.76 ± 0.21 | 4.8 ± 0.22
VVFLSPLTTFQDQLNRRGEFIQEI [OAS1] | 2.47 ± 0.5 | 2.35 ± 0.48
DSDSEKQQQIHHIKNLYAFNLFCQ [VPS39] | 2.58 ± 0.29 | 2.71 ± 0.35
RAGGPPRPMSEPGAGAGSSLLDVA [SMAD6] | 4.39 ± 0.39 | 4.37 ± 0.39
GHGAEQAAAFPTEDSRTSKESMSE [EHMT1] | 5.69 ± 0.2 | 5.19 ± 0.62
NGDPESVASLHWDGGALLGVLQYR [ADAMTS4] | 2.29 ± 0.74 | 2.54 ± 0.35
SAFTAAHELGHVFNMLHDNSKPCI [ADAMTS4] | 2.93 ± 0.094 | 3 ± 0.19

Sequence | protein stability index (treatment: DMSO) | protein stability index (treatment: MLN4924 1 uM, 8 h)
MEGKPMRRCTNIRPGETGMDVTSR [KLHL20] | 4.34 ± 0.085 | 4.41 ± 0.19
ELLDLSKQYDQQFPDGDDEFDSPH [STX11] | 4.89 ± 0.2 | 4.9 ± 0.17
RQDLEDRYAEHVAATQALPQDSGT [C22orf31] | 5.4 ± 0.17 | 5.46 ± 0.3
RTLWSGLPATLVMTVPATAIYFTA [SLC25A39] | 3.07 ± 0.42 | 3.1 ± 0.68
AMREAIQSYPSQDKPLPPPPPGSL [SOAT2] | 4.23 ± 0.12 | 4.04 ± 0.35
QLGTAGQGFSYSKSNGRGGSQAGG [MYOZ1] | 4.54 ± 0.2 | 4.93 ± 0.71
VGAAETTLTELRRTVQSLEIDLDS [KRT18] | 4.51 ± 0.19 | 4.86 ± 0.24
IEETYSKAMAKLSKLASNGTPMGT [FCHO1] | 3.4 ± 0.073 | 3.78 ± 0.29
RSRIEALELLGASFANDRENYDII [FEM1B] | 3.42 ± 0.27 | 3.52 ± 0.14
REVRQFQFTAWPDHGVPEHPTPFL [PTPRD] | 2.76 ± 0.24 | 2.97 ± 0.38
MLKIHRSDPQLIVQLRFCGRQPCG [TRADD] | 2.46 ± 0.73 | 1.92 ± 0.39
GLQEEPVEGFRVTLVDEGDLYNWE [CDC34] | 4.26 ± 0.14 | 4.15 ± 0.34
LASQNKPLWQCYLGRFNDINVPIR [PDS5B] | 2.03 ± 0.73 | 2.72 ± 0.058
ESLLAPLNVELDPEIQKVRAQERE [KRT71] | 5.54 ± 0.44 | 5.48 ± 0.2
ALMRMLDNLGYRTGYPYRYPALRE [ADD1] | 2.79 ± 0.4 | 2.65 ± 0.59
ELNNCISMLVAGNDRVQTIITQLE [TRIM63] | 2.25 ± 0.39 | 2.38 ± 0.11
DCEVFRQRFRQFQYREAAGPHEAF [ZNF449] | 2.94 ± 0.29 | 2.93 ± 0.28
MSRVHGMHPKETTRQLSLAVKDGL [ZMYND11] | 3.83 ± 0.22 | 3.89 ± 0.4
PFKRFLRKKSKPKKCVKKFVEYCD [SMOC2] | 2.45 ± 0.091 | 2.59 ± 0.26
EDFIFSHFFGDKALKKRSGKKDKH [PBXIP1] | 3.82 ± 0.079 | 4.13 ± 0.16
QKELKKAQMAKAAAEERALFTDRM [WEE1] | 4.69 ± 0.19 | 4.67 ± 0.16
